# B1: NdCld (Nitrospira defluvii; E236A/R199Q) (protein)
# chain: ADREKLLTESGVYGTFATFQMDHDWWDLPGESRVISVAEVKGLVEQWSGKILVESYLLRGLSDHADLMFRVHARTLSDTQQFLSAFMGTRLGRHLTSGGLLHGVSKKPTYVAGFPESMKTELQVNGESGSRPYAIVIPIKKDAEWWALDQEARTALMQEHTQAALPYLKTVKQKLYHSTGLDDVDFITYFETERLEDFHNLVRALQQVKAFRHNRRFGHPTLLGTMSPLDEILEKFAQ
# notes: N-terminal TEV-cleavable Strep-II tag, N-terminal signal peptide removed; expressed in E. coli Tuner (DE3), StrepTrap purified; homopentamer with heme b
# Substrate: [O-][Cl+]O
# Assay: O2 release, Clark-type oxygen electrode
# Type: biochemical, Nitrospira defluvii
# Settings: 50 mM phosphate pH 7.0, 30 °C, O2-free buffer, low heme occupancy
# From the text: O2 release, Clark-type oxygen electrode on NdCld
protein,measurement,value
B1,Km,184 ± 36 µM
same,kcat,0.9 s⁻¹
same,kcat/Km,4600 M⁻¹ s⁻¹

# Reference: article PMC3893830, “Manipulating Conserved Heme Cavity Residues of Chlorite Dismutase: Effect on Structure, Redox Chemistry, and Reactivity” (Biochemistry, 2013)
